{"source": "patent US20240166729A1", "binders": {"B1": {"name": "mAb-EspB-B7 (antibody, V domains shown)", "VH": "EVQLLESGGGLVQPGGSLRLSCAASGFTFSHYAMNWVRQAPGKGLEWVSAINSNGDSTYYPDTVKDRFTISRDNSKNTLYLQMNSLRAEDTAVYYCARDRRAGYFDYWGQGTLVTVSS", "VL": "DIVLTQPPSASGTPGQRVTISCSGSRDNIGKNYVSWYQQLPGTAPKLLIYRNNQRPSGVPDRFSGSKSGTSASLAISGLRSEDEADYYCSAWDTSLNAYVFGPGTQLTVL"}}, "key": {"[1]": {"molecular_target": "Peptide #50 (enteropathogenic E. coli (EPEC))"}, "[2]": {"molecular_target": "Peptide #49 + 50 (enteropathogenic E. coli (EPEC))"}, "[3]": {"molecular_target": "Peptide #49 (enteropathogenic E. coli (EPEC))"}, "mAb-EspB-B7 [4]": {"molecular_target": "mAb-EspB-B7"}, "mAb-EspB-B7 [5]": {"molecular_target": "mAb-EspB-B7", "remark": "listed apart in the source"}}, "note": "Like-named read-outs stand apart in the source and are kept apart here.", "data": [{"binder": "B1", "values": [{"measurement": "EC50 (read off the curve)", "setting": "[1]", "result": 0.4, "unit": "µg/mL"}, {"measurement": "EC50 (read off the curve)", "setting": "[2]", "result": 0.3, "unit": "µg/mL"}, {"measurement": "EC50 (read off the curve)", "setting": "[3]", "result": 0.5, "unit": "µg/mL"}]}, {"binder": "CTSAQKASQVAEEAADAAQEC (modifications not checked)", "note": "[Peptide #49 + 50]", "values": [{"measurement": "IC50 (read off the curve)", "setting": "mAb-EspB-B7 [4]", "result": 2, "unit": "µg/mL"}]}, {"binder": "CTSAQKASQVAEEAADC (modifications not checked)", "note": "[Peptide #49]", "values": [{"measurement": "IC50 (read off the curve)", "setting": "mAb-EspB-B7 [5]", "result": 0.8, "unit": "µg/mL"}]}]}
